One assay addresses T1, 4H94-AA.
T1 chain: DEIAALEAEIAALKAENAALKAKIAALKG
Put plainly: two-hybrid library CCmax.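 Note: natural log of median RNA to DNA barcode read ratio; higher means stronger binding.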

The next assay concerns the target T2, 4H881-AA.
T2 chain: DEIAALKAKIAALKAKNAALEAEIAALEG
Put plainly: two-hybrid library CCmax.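 Note: natural log of median RNA to DNA barcode read ratio; higher means stronger binding.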

The target in a further assay is T3, 4H605-AA.
T3 chain: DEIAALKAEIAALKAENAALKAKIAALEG
Put plainly: two-hybrid library CCmax.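 Note: natural log of median RNA to DNA barcode read ratio; higher means stronger binding.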

The target in another assay is T4, 4H794-AA.
T4 chain: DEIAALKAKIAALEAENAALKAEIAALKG
Briefly: two-hybrid library CCmax.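 Note: natural log of median RNA to DNA barcode read ratio; higher means stronger binding.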

A further assay deals with T5, 4H993-AA.
T5 chain: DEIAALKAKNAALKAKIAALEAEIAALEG
Briefly: two-hybrid library CCmax.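 Note: natural log of median RNA to DNA barcode read ratio; higher means stronger binding.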

For the next assay, the target named is T6, 4H906-AA.
T6 chain: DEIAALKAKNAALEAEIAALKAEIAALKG
Put plainly: two-hybrid library CCmax.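 Note: natural log of median RNA to DNA barcode read ratio; higher means stronger binding.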

A further assay has as its target T7, 4H678-AA.
T7 chain: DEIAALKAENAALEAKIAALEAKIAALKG
Put plainly: two-hybrid library CCmax.

The target of a further assay is T8, 4H717-AA.
T8 chain: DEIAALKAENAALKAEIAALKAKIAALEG
Put plainly: two-hybrid library CCmax. As to conditions: mean of both orientations.

The target of the next assay is T9, 4H780-AA.
T9 chain: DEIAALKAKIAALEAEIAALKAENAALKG
Put plainly: two-hybrid library CCmax.

In the next assay the target is T10, 4H930-AA.
T10 chain: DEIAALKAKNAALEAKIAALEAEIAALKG
Put plainly: two-hybrid library CCmax.

Another assay has as its target T11, 4H909-AA.
T11 chain: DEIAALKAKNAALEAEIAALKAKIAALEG
Put plainly: two-hybrid library CCmax.

The target of a further assay is T12, 4H967-bN.
T12 chain: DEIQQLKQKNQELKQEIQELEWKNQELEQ
Briefly: two-hybrid library CCNG1.

The next assay has as its target T13, 4H745-AA.
T13 chain: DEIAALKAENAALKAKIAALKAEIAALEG
Put plainly: two-hybrid library CCmax. As to conditions: mean of both orientations.

The next assay deals with T14, 4H797-AA.
T14 chain: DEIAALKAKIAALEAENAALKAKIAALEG
Briefly: two-hybrid library CCmax. Conditions: mean of both orientations.

Another assay addresses T15, 4H891-AA.
T15 chain: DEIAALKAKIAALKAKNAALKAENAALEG
Put plainly: two-hybrid library CCmax.

A further assay deals with T16, 4H710-AA.
T16 chain: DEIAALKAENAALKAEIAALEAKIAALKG
Put plainly: two-hybrid library CCmax.

The target in the next assay is T17, 4H850-AA.
T17 chain: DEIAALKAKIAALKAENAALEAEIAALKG
Put plainly: two-hybrid library CCmax.

The next assay deals with T18, 4H570-AA.
T18 chain: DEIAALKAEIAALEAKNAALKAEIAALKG
Put plainly: two-hybrid library CCmax.

The next assay has as its target T19, 4H629-AA.
T19 chain: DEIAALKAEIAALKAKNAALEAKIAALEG
Briefly: two-hybrid library CCmax.

The target in another assay is T20, 4H536-AA.
T20 chain: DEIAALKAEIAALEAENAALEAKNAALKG
Briefly: two-hybrid library CCmax.

A further assay addresses T21, 4H63-AA.
T21 chain: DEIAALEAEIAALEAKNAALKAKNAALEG
Put plainly: two-hybrid library CCmax.

Another assay has as its target T22, 4H566-AA.
T22 chain: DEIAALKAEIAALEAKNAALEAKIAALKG
Put plainly: two-hybrid library CCmax.

In a further assay the target is T23, 4H48-AA.
T23 chain: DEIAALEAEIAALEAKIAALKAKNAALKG
Put plainly: two-hybrid library CCmax. As to conditions: mean of both orientations.

In a further assay the target is T24, 4H454-AA.
T24 chain: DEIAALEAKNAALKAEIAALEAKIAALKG
Briefly: two-hybrid library CCmax. Conditions: mean of both orientations.

Another assay addresses T25, 4H429-AA.
T25 chain: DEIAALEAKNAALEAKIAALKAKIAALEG
Put plainly: two-hybrid library CCmax.

For 21 molecules, interaction score results are on record in PMC10397247.

Like-named read-outs stand apart in the source and are kept apart here.

For DEIAALEAEIAALKAENAALKAKIAALKG [4H94-AA], the interaction score with 4H94-AA was determined as 2.24.

For DEIAALKAEIAALKAENAALKAKIAALEG [4H605-AA], the interaction score with 4H881-AA (mean of both orientations) is -0.443; with 4H605-AA, 1.29; in the assay with 4H794-AA (mean of both orientations), -0.923; in the assay with 4H993-AA (mean of both orientations) it was -1.15; with 4H906-AA (mean of both orientations) it was -1.14; with 4H678-AA (mean of both orientations), -0.274. The interaction score with 4H717-AA is -1.23; with 4H780-AA (mean of both orientations) it was -1.53.

In the assay with 4H993-AA, DEIAALKAKNAALKAKIAALEAEIAALEG [4H993-AA] showed an interaction score of 1.19.

For DEIAALKAKNAALEAKIAALEAEIAALKG [4H930-AA], the interaction score with 4H930-AA was 1.74; with 4H94-AA (mean of both orientations) it was -1.34.

DEIAALKAKNAALEAEIAALKAKIAALEG [4H909-AA]: the interaction score is 2.08 in the assay with 4H909-AA, -1.17 in the assay with 4H930-AA (mean of both orientations) and -0.983 with 4H94-AA (mean of both orientations).

Regarding DEIQQLKQKNQELKQEIQELEWKNQELEQ [4H967-bN], the interaction score with 4H967-bN was -0.749.

Take DEIAALKAENAALKAEIAALEAKIAALKG [4H710-AA]: the interaction score was 1.86 in the assay with 4H745-AA; -0.464 with 4H909-AA (mean of both orientations); -1.31 in the assay with 4H797-AA; -0.472 with 4H930-AA (mean of both orientations); -1.65 with 4H891-AA (mean of both orientations); -0.285 in the assay with 4H94-AA (mean of both orientations). Moreover, the interaction score with 4H710-AA was 0.809; with 4H850-AA (mean of both orientations) it was -1.15.

Regarding DEIAALKAEIAALEAENAALEAKNAALKG [4H536-AA], the interaction score with 4H745-AA was -1.07; in the assay with 4H909-AA (mean of both orientations), -1.61; in the assay with 4H797-AA, -0.504; with 4H570-AA (mean of both orientations), 1.1; with 4H629-AA (mean of both orientations) it was 0.302; in the assay with 4H930-AA (mean of both orientations) it was -1.56. The interaction score is 1.78 in the assay with 4H891-AA (mean of both orientations); -0.957 with 4H94-AA (mean of both orientations); 0.339 with 4H536-AA; -1.44 with 4H710-AA (mean of both orientations); 1.35 in the assay with 4H850-AA (mean of both orientations).

In the case of DEIAALKAKIAALEAENAALKAEIAALKG [4H794-AA], the interaction score in the assay with 4H881-AA (mean of both orientations) is -0.532; with 4H794-AA, 1.84; in the assay with 4H993-AA (mean of both orientations), -1.99; in the assay with 4H906-AA (mean of both orientations), -1.42.

Regarding DEIAALEAEIAALEAKNAALKAKNAALEG [4H63-AA], the interaction score with 4H63-AA is -1.93.

For DEIAALKAEIAALKAKNAALEAKIAALEG [4H629-AA], the interaction score with 4H745-AA was -1.44; with 4H909-AA (mean of both orientations), -1.56; in the assay with 4H797-AA, -1.05; with 4H629-AA, 1.86; in the assay with 4H930-AA (mean of both orientations), -1.41; in the assay with 4H891-AA (mean of both orientations) it was -1.48. Moreover, the interaction score with 4H94-AA (mean of both orientations) was -0.298; with 4H710-AA (mean of both orientations) it was -0.399; with 4H850-AA (mean of both orientations), -0.0456.

Regarding DEIAALKAENAALKAKIAALKAEIAALEG [4H745-AA], the interaction score with 4H909-AA (mean of both orientations) was -0.361; with 4H797-AA, -1.44; with 4H930-AA (mean of both orientations) it was -0.807; with 4H891-AA (mean of both orientations), -1.51; in the assay with 4H94-AA (mean of both orientations), -1.46; with 4H850-AA (mean of both orientations), -0.847.

Consider DEIAALKAKIAALKAKNAALKAENAALEG [4H891-AA], for which the interaction score is -1.73 with 4H909-AA (mean of both orientations), -1.86 in the assay with 4H930-AA (mean of both orientations), -1.96 with 4H891-AA and -0.169 with 4H94-AA (mean of both orientations).

As to DEIAALKAEIAALEAKNAALEAKIAALKG [4H566-AA], the interaction score with 4H566-AA is 2.14; with 4H881-AA (mean of both orientations), 1.95; in the assay with 4H605-AA (mean of both orientations) it was -0.184; with 4H794-AA (mean of both orientations) it was -0.409; with 4H993-AA (mean of both orientations), 1.6; in the assay with 4H906-AA (mean of both orientations), -1.33. Also, the interaction score with 4H678-AA (mean of both orientations) is -0.948; in the assay with 4H717-AA, -0.483; with 4H780-AA (mean of both orientations), -2.

For the molecule DEIAALKAKIAALEAEIAALKAENAALKG [4H780-AA], the interaction score in the assay with 4H881-AA (mean of both orientations) was -1.27; in the assay with 4H794-AA (mean of both orientations) it was -1.57; with 4H993-AA (mean of both orientations), -1.51; with 4H906-AA (mean of both orientations), -1.19; in the assay with 4H780-AA, 1.68.

As for DEIAALEAKNAALEAKIAALKAKIAALEG [4H429-AA], the interaction score was 0.0626 with 4H566-AA (mean of both orientations); -0.728 with 4H48-AA; -0.143 in the assay with 4H881-AA (mean of both orientations); -1.54 in the assay with 4H605-AA; -0.809 with 4H794-AA (mean of both orientations); 1.83 in the assay with 4H454-AA. The interaction score was 1.92 with 4H993-AA; 0.468 in the assay with 4H429-AA; -0.239 with 4H906-AA (mean of both orientations); 1.26 with 4H678-AA (mean of both orientations); -0.775 with 4H717-AA; -1.7 with 4H780-AA (mean of both orientations).

With DEIAALKAENAALEAKIAALEAKIAALKG [4H678-AA], the interaction score was 1.21 in the assay with 4H881-AA (mean of both orientations); -1.91 with 4H794-AA (mean of both orientations); 1.05 with 4H993-AA (mean of both orientations); -0.716 with 4H906-AA (mean of both orientations); 1.57 with 4H678-AA; -0.0211 with 4H717-AA. Besides, the interaction score with 4H780-AA (mean of both orientations) was -1.59.

As to DEIAALKAEIAALEAKNAALKAEIAALKG [4H570-AA], the interaction score was -1.48 in the assay with 4H745-AA; -1.22 in the assay with 4H909-AA (mean of both orientations); 0.178 in the assay with 4H797-AA; 1.51 with 4H570-AA; -0.598 in the assay with 4H629-AA (mean of both orientations); -1.1 with 4H930-AA (mean of both orientations). Further, the interaction score with 4H891-AA (mean of both orientations) was -0.736; with 4H94-AA (mean of both orientations), 1.71; in the assay with 4H710-AA (mean of both orientations), -1.47; with 4H850-AA (mean of both orientations), 1.66.

Turning to DEIAALKAKIAALKAKNAALEAEIAALEG [4H881-AA], the figures for the interaction score with 4H881-AA, with 4H993-AA (mean of both orientations) and with 4H906-AA (mean of both orientations) were -0.685, 1.82 and -1.49, respectively.

Regarding DEIAALKAKNAALEAEIAALKAEIAALKG [4H906-AA], the interaction score with 4H993-AA (mean of both orientations) was -0.00106; with 4H906-AA it was 1.74.

For DEIAALKAKIAALKAENAALEAEIAALKG [4H850-AA], the interaction score in the assay with 4H909-AA (mean of both orientations) was -1.47; in the assay with 4H930-AA (mean of both orientations) it was -1.9; with 4H891-AA (mean of both orientations) it was -0.0612; with 4H94-AA (mean of both orientations) it was 1.79; in the assay with 4H850-AA, 1.89.
